Results published in US20250221936A1, “ENGINEERED HEMICHANNELS, ENGINEERED VESICLES, AND USES THEREOF” (VIRGINIA TECH INTELLECTUAL PROPERTIES, INC., priority 2018, published 2025).
“Also recorded” adds a separate entry of the source.

What was measured:
[1] = system: Neonatal cardiac fibroblasts (NHFs); test: Collagen synthesis by neonatal cardiac fibroblasts, Western blotting; format: cell-based, rat
Text: Isolation and treatment of Neonatal Cardiac Fibroblasts with Cx43 based peptides (peptides used included ACT1, JM1, JM2, Antennapedia [ANT], reverse ACT1 [Rev], poly Arginine [poly r]). Said peptides with and without internalization vectors can be loaded into the provided EVs and can elicit results similar to those observed for naked peptide as follows. Neonatal cardiac fibroblasts (NHFs) were isolated from 3-4 day old rat hearts by collagenase digestion (100 U/mL) and differential attachment as previously described (Borg et ah, 1984). All cells were maintained in Dulbecco's Modified Eagle Medium (DMEM) supplemented with 10% Fetal Bovine Serum and 100 U/mL penicillin G and 100 μg/mL streptomycin and used prior to passage four. For experiments, 40,000 NHFs were plated into the wells of a 24-well tissue culture plate and grown for 24-48 hours. On the day of treatment, media was removed from each well and replaced with fresh media containing 50 μg/mL L-ascorbic acid-2-phosphate; Sigma Chemical Co., St. Louis, MO). The appropriate volume of each peptide (resuspended in sterile, deionized 18 MQ resistivity water) was added to achieve the desired final concentration (30, 90, 180 µM peptide concentrations were tested). Culture plates were incubated overnight in a 37° C. incubator with 5% C02.
Protein Isolation and Examination of Collagen Synthesis by Western Blotting. Conditioned culture media was collected from each well and stored at −20° C. for analysis of soluble collagen. Cellular protein, including insoluble collagen and collagen still within the NHFs, were isolated by adding 100-200 μL, of cell lysis buffer (0.01 M Tris, pH 7.4, 0.001 M Sodium Orthovanadate, 1% sodium dodecylsulfate [SDS]) to each well and incubating 10 minutes at room temperature. Prior to addition, cell lysis buffer was warmed to facilitate solubilization of SDS and 100 u L of Halt protease inhibitor (Pierce Biotechnology, Rockford, IL) was added per 10 mL buffer to be used. After incubation, the well bottoms were scraped and liquid transferred to a microcentrifuge tube for storage at −20° C. Protein concentrations of cell lysates were determined using a Micro BCA assay (Pierce). SDS-PAGE samples were prepared by combining either 10 μg of cell lysate or 30 μL of conditioned media with XT loading buffer (BioRad, Hercules, CA), dithiothreitol and boiled for five minutes. Samples were loaded onto 3-8% Tris-Acetate Criterion X T gels (BioRad, Hercules, CA) and proteins separated at 140V. After electrophoresis, proteins were transferred onto […] nitrocellulose membranes (BioRad) overnight at room temperature (Transfer buffer: 25 mM Tris, 192 mM Glycine, 20% Methanol, 0.01% SDS). The presence of collagen was determined by probing the membranes with a rabbit anti-mouse collagen type I antibody (MD Biosciences) at 1:20,000 dilution in blocking buffer (5% milk in Tris-buffered saline) followed by a goat anti-rabbit IgG horseradish peroxidase conjugated antibody at 1:100,000 (Southern Biotech Associates) and detection with Pierce SuperSignal Femto West detection reagent (Pierce). To assess the activity of JM1 and JM2 peptides with respect to collagen production and their potential in mediating wound healing, cardiac fibroblasts were treated with these two peptides and their effectiveness compared to that for the previous described Cx43 peptide ACT1. NHFs were treated with various concentrations of JM1, JM2, ACT1, and ANT (Antennapedia) peptides, vehicle (water) or left untreated and the production of collagen both in the culture media and cell-associated collagen assessed by western blotting. […] To evaluate the impact of the poly-Arginine (poly-r)N-terminal sequence on JM1 and Jm2 activity, NHF cells were treated with a poly-r peptide.

[2] = molecular target: T1, ZO-1 PDZ2 (Homo sapiens, UniProt Q07157); test: Protein thermal shift assay, ZO-1 PDZ2; format: binding; conditions: 500 μg/ml protein, 25-100 μM peptide
T1 construct: the second of the three PDZ (PDZ2) domains of ZO-1; made in house; host or cells: E. coli BL21
T1 sequence (Q07157 186-264 limits assumed): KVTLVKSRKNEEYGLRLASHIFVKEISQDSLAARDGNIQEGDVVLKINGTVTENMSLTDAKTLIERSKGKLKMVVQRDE
Method: Thermal stability of recombinant GST-PDZ2 or Cx43 CT in the presence or absence of peptides was determined in a 96-well format. Each assay well was composed of 500 μg/ml protein, 25-100 μM of each peptide in PBS buffer, pH7.4. All assays were performed independently six times. Samples were generally prepared in 96-well plates at final volumes of 20 μL. The fluorescent dye SYPRO Orange (5000× concentrate in DMSO, ThermoFisher, S6650) was added to a final concentration of 8X. Reactions were run on QuantStudio 6 Flex Real-Time PCR system (Applied Biosystems, part of Life Technologies Corporation, CA) according to the manufacturer's recommendations using a melt protocol in 0.05-degree/see increments from 25° C. to 95° C. The Reporter Dye was “ROX” and quencher Dye and passive reference were selected as “None” for the melt curve according to manufacturer's instructions. The data were analyzed using Protein Thermal Shift™ Software v1.3 package (Applied Biosystems, CA).

[3] = molecular target: T1, ZO-1 PDZ2; test: EDC cross-linking to GST fusion ZO-1 PDZ domains; format: binding; conditions: 5, 25 and 50 μM
Method: To characterize the interaction between the Cx43 CT substrate and peptides, the in vitro kinase assay was performed as above with modification and the constituents then subjected to a cross-linking reaction. The assay buffer used was 20 mM 3-(N-morpholino) propanesulfonic acid (MOPS), pH 7.2. All other reagents present in the kinase reaction were maintained as described above. The reaction was allowed to proceed at 37° C. for 15 minutes. Afterwards, the carbodiimide crosslinker 1-Ethyl-3-(3-dimethylaminopropyl) carbodiimide HCl (EDC) (Thermo, 22980) was added to each solution for a final concentration of 20 mM. The solution was allowed to cross-link for one hour at room temperature. The reaction was stopped by the addition of 4×LDS loading buffer, boiled for 5 minutes and subsequently separated by PAGE. The resulting gel was stained in Coomassie brilliant blue (Sigma, B0770) for two hours and destained in a solution of 4% methanol 7% acetic acid overnight. Gel bands were subsequently excised for mass spectrometric analysis. For the direct interaction between protein and peptides, PBS, pH 7.5 was used as the coupling buffer. The protein (50 μg/ml) and peptide (25 μM) were allowed to react at room temperature for one hour before EDAC was added to the reaction mixture. The reaction was Western blotted for Cx43, GST or NeutroAvidin.

Sequence | mature type I collagen in conditioned media ([1]; 30, 90, 180 µM) | PDZ2 melt temperature (Tm) [2] | interaction with ZO-1 PDZ2 [3] | also measured
VFFKGVKDRVKGRSD [JM2] | dose-dependent decrease in the production of mature, type I collagen |  |  | mature type I collagen in conditioned media ([1]; 180 μM): no mature type I collagen was detected; collagen produced versus poly-r peptide ([1]; about 90 μM): less than half of that produced by cells treated with the poly-r peptide; mature type I collagen in cell lysate ([1]; versus ACT1 peptide): more profound reduction in the amount of mature type I collagen
RQPKIWFPNRRKPWKKRPRPDDLAI [M3 DDLAI] |  | evidence of significant interaction with its ZO-1-binding domain |  | PDZ2 melt temperature (Tm) ([2]; listed as M3): significantly increase the Tm of
RQPKIWFPNRRKPWKKRPRPDDLE [alpha CT1-I] |  | PDZ2 interaction incompetent | incompetent to interact; also recorded: abrogates interaction with ZO-1 PDZ2 | 
RQPKIWFPNRRKPWKK RPRPAALAI (RQPKIWFPNRRKPWKKRPRPAALAI) [M1 AALAI] |  | did not alter the melt temperature of PDZ2 |  | 
RQPKIWFPNRRKPWKKRPRPDDLEI [alpha CT1] | dose-dependent reduction in the secretion of mature, fully processed collagen | significantly increase the Tm of; also recorded: increased the melt temperature of PDZ2 in a dose-dependent manner | selectivity of alpha CT1 for ZO-1 PDZ2 | 
